Source: patent US20130195872A1 (NOVIMMUNE S A, published 2013)
Substitutions are numbered along the chain they refer to.

T1: human IL-17A homodimer (human, UniProt Q16552 20-155, limits assumed)
T1 sequence (looked up): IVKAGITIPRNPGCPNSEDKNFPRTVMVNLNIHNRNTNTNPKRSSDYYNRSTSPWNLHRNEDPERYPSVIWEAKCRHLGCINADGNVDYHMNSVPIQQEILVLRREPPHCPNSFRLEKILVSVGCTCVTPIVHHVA

T2: cynomolgus IL-17A homodimer (cynomolgus, UniProt A0A2K5TTB0 20-155)
T2 sequence: T1 sequence (looked up) with T7A, P12S, N38S, I81V, N82K, P108R

T3: rat IL-17A homodimer (rat, UniProt Q61453 18-150, limits assumed)
T3 sequence (looked up): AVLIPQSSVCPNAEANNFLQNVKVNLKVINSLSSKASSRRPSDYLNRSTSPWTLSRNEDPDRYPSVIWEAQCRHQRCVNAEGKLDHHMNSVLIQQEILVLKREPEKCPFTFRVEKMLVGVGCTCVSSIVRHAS

T4: cynomolgus IL-17F homodimer (cynomolgus, UniProt G7P4V0 31-163)
T4 sequence: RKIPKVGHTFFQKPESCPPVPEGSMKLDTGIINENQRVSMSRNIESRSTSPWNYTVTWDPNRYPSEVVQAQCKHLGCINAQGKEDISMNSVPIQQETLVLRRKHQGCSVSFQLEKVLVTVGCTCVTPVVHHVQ

T5: rat IL-17F homodimer (rat, UniProt Q5BJ95 29-161)
T5 sequence (looked up): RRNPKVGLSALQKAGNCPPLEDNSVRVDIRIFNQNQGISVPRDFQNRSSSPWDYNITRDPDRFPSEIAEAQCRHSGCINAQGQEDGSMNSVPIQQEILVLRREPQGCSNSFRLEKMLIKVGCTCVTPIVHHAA

T6: human IL-17A/IL-17F heterodimer (human, UniProt Q16552 24-155; Q96PD4 31-163, limits assumed)
T6 sequence (looked up) 1: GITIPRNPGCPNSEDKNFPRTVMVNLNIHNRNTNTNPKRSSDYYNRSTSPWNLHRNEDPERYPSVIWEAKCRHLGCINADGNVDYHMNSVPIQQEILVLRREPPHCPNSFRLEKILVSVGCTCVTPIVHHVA
T6 sequence (looked up) 2: T4 sequence with E22G, T29I, K73R, H74N, L100V, V129I

T7: mouse IL-17A/IL-17F heterodimer (mouse, UniProt Q62386 26-158; Q7TNI7 29-161, limits assumed)
T7 sequence (looked up) 1: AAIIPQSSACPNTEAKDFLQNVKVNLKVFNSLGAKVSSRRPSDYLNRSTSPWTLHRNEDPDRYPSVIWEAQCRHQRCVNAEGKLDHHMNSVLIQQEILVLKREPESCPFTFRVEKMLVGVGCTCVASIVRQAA
T7 sequence (looked up) 2: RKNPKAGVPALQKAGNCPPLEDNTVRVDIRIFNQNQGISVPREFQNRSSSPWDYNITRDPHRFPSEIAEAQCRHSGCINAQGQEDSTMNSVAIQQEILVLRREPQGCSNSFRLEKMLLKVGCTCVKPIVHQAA

T8: mouse IL-17F homodimer (mouse, UniProt Q7TNI7 29-161, limits assumed)
T8 sequence (looked up): T7 sequence (looked up) 2

T9: mouse IL-17A homodimer (mouse, UniProt Q62386 26-158, limits assumed)
T9 sequence (looked up): T7 sequence (looked up) 1

B1: 30D12BF antibody (antibody, V domains shown)
VH: QVQLVQSGAEVKKPGASVKVSCKASGYTFTSYDINWVRQATGQGLEWMGWLNPDSGVIRYAQKFQGRVTMTRDTSISTAYMELSSLRSEDTAVYYCAREWFGELPSYYFYSGMDVWGQGTTVTVSS
VL: EIVLTQSPATLSLSPGERATLSCRASQSVSSYLAWYQQKPGQAPRLLIYDASNRATGIPARFSGSGSGTDFTLTISSLEPEDFAVYYCQQRSNWPPTFGPGTKVDIK
B2: 4B11 antibody (antibody, IgG1, V domains shown)
VH: QLQLQESGPGLVKPSETLSLTCAVSDDYISSRSYYWGWIRQPPGKGLEWIGSIYYSGSTYYNPSLKSRVTISVDTSKNQFSLKVSSVTATDTAVYYCARVSGWNGNWFDPWGQGTLVTVSS
VL: not shown
notes: also called 4B11 IgG1
B3: 39F12A antibody (antibody, V domains shown)
VH: QVQLVQSGAEVKKPGSSVKVSCKASGGTLSSYAFSWVRQAPGQGLEWMGGIIPFFGTTNYAQKFQGRVIITADESTNTAYMELSGLRSEDTAVYYCARDRDYYGLGSPFYYYGMDVWGQGTTVTVSS
VL: EIVLTQSPDFQSVTPKEKVTITCRASQSIGSSLHWYQQKPDQSPKLLIKYASQSFSGVPSRFSGSGSGTDFTLTINSLEAEDAATYYCHQSSSLPWTFGQGTKVEIK
B4: 4H11 antibody (antibody, IgG1, V domains shown)
VH: EVQLVESGGGLVQPGGSLKLSCAASGFTFSGSSMHWVRQASGKGLDWVGRIRSKANSYATAYAASVIGRFTISRDDSKNTAYLQMNSLKTEDTAVYYCTTSVATTLTDYYGMDVWGQGTTVTVSS
VL: EIVLTQSPATLSLSPGERATLSCRASQSVSSYLAWYQQKPGQAPRLLIYDASNRATGIPARFSGSGSGTDFTLTISSLEPEDFAVYYCQQRSNWPPFTFGPGTKVDIK
notes: also called Mab09; 4H11 IgG1
B5: 5E12 antibody (antibody, IgG4, V domains shown)
VH: QVQLVQSGGGLVQPGRSLRLSCAASGFTFDDYAMHWVRQAPGKGLEWVSGISWNSGTIGYADSVKGRFTISRDNAKNSLYLQMNSLRAEDTALYYCAKELYISDWDSYSYGMDVWGQGTTVTVSS
VL: not shown
notes: also called Mab05; 5E12 IgG4
B6: 41B10 antibody (antibody, IgG4, V domains shown)
VH: not shown
VL: DIQMTQSPSSLSASVGDRVTITCRASQGISSWLAWYQQKPEKAPKSLIYAASSLQSGVPSRFSGSGSGTDFTLTISSLQPEDFATYYCQQYNSYPITFGQGTRLEIK
notes: also called 41B10 IgG4

Legend:
human IL-17A homodimer [1] = molecular target: T1, human IL-17A homodimer; experiment: cell-based or functional assay
[2] = molecular target: T2, cynomolgus IL-17A homodimer; experiment: cell-based or functional assay
rat IL-17A homodimer = molecular target: T3, rat IL-17A homodimer; experiment: cell-based or functional assay
[3] = molecular target: cynomolgus IL-17A/IL-17F heterodimer (cynomolgus); experiment: cell-based or functional assay
[4] = molecular target: T4, cynomolgus IL-17F homodimer; experiment: cell-based or functional assay
rat IL-17F homodimer = molecular target: T5, rat IL-17F homodimer; experiment: cell-based or functional assay
[5] = molecular target: T6, human IL-17A/IL-17F heterodimer; experiment: cell-based or functional assay
human IL-17A homodimer [6] = molecular target: T1, human IL-17A homodimer; experiment: cell-based or functional assay; remark: listed apart in the source
[7] = molecular target: T2, cynomolgus IL-17A homodimer; experiment: cell-based or functional assay; remark: listed apart in the source
[8] = molecular target: T2, cynomolgus IL-17A homodimer; experiment: FLISA, cytokine on beads
Description: (§1) After an incubation period of 2 to 8 hours the fluorescence of the beads was measured in an 8200 Cellular Detection System analyzer (Applied Biosystems). Hybridomas producing human IgGs that bound to huIL-17F, huIL-17A or both huIL-17F and huIL-17A, but not to BSA, were expanded and subjected to further analysis.
(§2) huIL-17F antibodies were tested for their ability to bind to the other members of the IL-17 family of cytokines, as well as to IL-17A and IL-17F from other species. The assay was performed in the FLISA format, as described above.

[9] = molecular target: T4, cynomolgus IL-17F homodimer; experiment: FLISA, cytokine on beads
Description: as §1, §2

[10] = molecular target: T7, mouse IL-17A/IL-17F heterodimer; experiment: cell-based or functional assay
mouse IL-17F homodimer = molecular target: T8, mouse IL-17F homodimer; experiment: cell-based or functional assay
mouse IL-17A homodimer = molecular target: T9, mouse IL-17A homodimer; experiment: cell-based or functional assay
human IL-17A homodimer [11] = molecular target: T1, human IL-17A homodimer; experiment: FLISA, cytokine on beads
Description: as §1, §2

Row | Binder | IC50, IL-6 secretion by MEF cells, cytokine at 5 ng/ml (human IL-17A homodimer [1]) [nM] | IC50, IL-6 secretion by MEF cells, cytokine at 5 ng/ml [2] [nM] | IC50, IL-6 secretion by MEF cells, cytokine at 5 ng/ml (rat IL-17A homodimer) [nM] | IC50, IL-6 secretion by MEF cells, cytokine at 25 ng/ml [3] [nM] | IC50, IL-6 secretion by MEF cells, cytokine at 25 ng/ml [4] [nM] | IC50, IL-6 secretion by MEF cells, cytokine at 25 ng/ml (rat IL-17F homodimer) [nM] | IC50, IL-6 secretion by MEF cells, cytokine at 17.5 ng/ml [5] [nM] | IC50, IL-6 secretion by HFFF2 human fibroblasts, cytokine at 25 ng/ml (human IL-17A homodimer [6]) [nM] | IC50, IL-6 secretion by HFFF2 human fibroblasts, cytokine at 25 ng/ml [7] [nM] | binding result [8] | binding result [9] | IC50, IL-6 secretion by MEF cells, cytokine at 50 ng/ml [10] [nM] | IC50, IL-6 secretion by MEF cells, cytokine at 50 ng/ml (mouse IL-17F homodimer) [nM] | IC50, IL-6 secretion by MEF cells, cytokine at 5 ng/ml (mouse IL-17A homodimer) [nM] | binding result (human IL-17A homodimer [11])
1 | B1 | 1.6 | 2.5 | > 1000 | 13 | 130 | 30 | 27 | 3 | 5.7 |  |  |  |  |  | 
2 | B2 | 680 |  |  |  |  |  | 810 | > 1000 |  | binds | binds |  |  |  | 
3 | B3 |  |  | > 1000 |  |  | 0.71 | 4.4 | 21 | 20 |  |  | 170 | 6.2 | > 1000 | 
4 | B4 | 87 |  |  |  |  |  | 810 | 108 |  | binds | binds |  |  |  | 
5 | B5 | > 1000 |  |  |  |  |  | > 1000 |  |  |  | binds |  |  |  | no binding
6 | B6 | > 1000 |  |  |  |  |  | > 1000 |  |  |  | binds |  |  |  | no binding
